Reference: publication PMC6265488

What was measured:
Assay in all cases: co-sedimentation
[1] = target: 28S small mitoribosome subunit (mtSSU) (human (endogenous in HEK293T or 143B))
[2] = target: 55S monosome (human (endogenous in HEK293T or 143B))
[3] = target: 39S large mitoribosome subunit (mtLSU) (human (endogenous in HEK293T or 143B))

Row | Substance | percent of total GTPBP10 that co-sediments [1] [%] | percent of total GTPBP10 that co-sediments [2] [%] | percent of total GTPBP10 that co-sediments [3] [%]
1 | GTPBP10 (endogenous in 143B, isoform 2) (natural protein) | 10 | 1 to 2 | 10
2 | GTPBP10 (endogenous in HEK293T, isoform 1) (from UniProt A4D1E9-1 1-387) (natural protein) | 10 | 1 to 2 | 10
